This is an account of results in patent EP4644423A1 (Biyopharma Co., Ltd, dated 2025).

The target in experiment [1] is T1, RC-Fc (human).
T1 construct: Knob-in-hole heterodimer of the R chain and the C chain, human IgG1 Fc; expressed in 293 cells, purified on Protein A; also called RC-Fc fusion protein; reconstructed CGRP receptor extracellular region
The experiment in a line: ELISA, RC-Fc coated, VHH-His titrated, anti-His-HRP; Exp1.

For experiment [2], the target named is T1, RC-Fc. The experiment can be described thus: ELISA, RC-Fc coated, VHH-His titrated, anti-His-HRP; Exp2.
The target of experiment [3] is T1, RC-Fc. The experiment in a line: ELISA, RC-Fc coated, VHH-His titrated, anti-His-HRP; Exp3.
Experiment [4] addresses T1, RC-Fc. The experiment in a line: ELISA, RC-Fc coated, VHH-His titrated, anti-His-HRP; average of Exp1-3.
Experiment [5] concerns the target CGRP receptor on SK-N-MC cells (UniProt O60894 27-148; Q16602 23-461, limits assumed). The experiment in a line: cell-based or functional assay.
Experiment [6] concerns the target T2, pituitary adenylate cyclase-activating polypeptide (PACAP) (UniProt P18509 132-169, not fully specified; biotin label in the ELISA of Example 3 (Biotin-PACAP; position not stated); unlabelled in the cAMP assay).
T2 construct: also called PACAP38; Biotin-PACAP
T2 peptide (looked up): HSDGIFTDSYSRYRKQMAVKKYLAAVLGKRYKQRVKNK
The experiment can be described thus: ELISA, Biotin-PACAP on streptavidin plate, Fc fusion titrated, anti-human IgG-HRP.

Sequence of CGRP receptor on SK-N-MC cells (O60894 27-148 limits assumed, chain 1 of 2): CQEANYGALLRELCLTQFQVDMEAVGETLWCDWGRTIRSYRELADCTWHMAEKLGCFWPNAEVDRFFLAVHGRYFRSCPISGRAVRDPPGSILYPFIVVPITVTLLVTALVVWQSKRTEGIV
Sequence of CGRP receptor on SK-N-MC cells (Q16602 23-461 limits assumed, chain 2 of 2): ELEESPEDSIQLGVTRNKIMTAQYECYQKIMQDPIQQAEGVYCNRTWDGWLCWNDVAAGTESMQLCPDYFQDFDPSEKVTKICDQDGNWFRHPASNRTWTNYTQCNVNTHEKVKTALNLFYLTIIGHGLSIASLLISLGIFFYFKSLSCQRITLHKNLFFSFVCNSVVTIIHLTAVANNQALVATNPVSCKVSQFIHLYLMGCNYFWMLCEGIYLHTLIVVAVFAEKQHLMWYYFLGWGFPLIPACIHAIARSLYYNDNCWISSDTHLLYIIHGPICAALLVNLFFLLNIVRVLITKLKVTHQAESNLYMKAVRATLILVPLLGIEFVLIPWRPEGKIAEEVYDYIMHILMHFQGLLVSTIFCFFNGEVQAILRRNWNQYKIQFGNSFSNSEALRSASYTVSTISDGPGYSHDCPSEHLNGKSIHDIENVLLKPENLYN
T1 sequence (chain, as listed by the source limits assumed, chain 1 of 2): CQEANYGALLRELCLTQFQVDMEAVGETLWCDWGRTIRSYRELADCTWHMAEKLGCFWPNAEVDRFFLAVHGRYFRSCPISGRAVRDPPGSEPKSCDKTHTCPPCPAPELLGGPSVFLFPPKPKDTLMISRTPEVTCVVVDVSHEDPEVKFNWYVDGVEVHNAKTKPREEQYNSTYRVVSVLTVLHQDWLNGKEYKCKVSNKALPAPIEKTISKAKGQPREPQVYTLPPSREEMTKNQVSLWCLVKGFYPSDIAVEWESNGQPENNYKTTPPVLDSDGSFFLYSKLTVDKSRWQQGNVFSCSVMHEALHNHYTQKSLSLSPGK
T1 sequence (chain, as listed by the source limits assumed, chain 2 of 2): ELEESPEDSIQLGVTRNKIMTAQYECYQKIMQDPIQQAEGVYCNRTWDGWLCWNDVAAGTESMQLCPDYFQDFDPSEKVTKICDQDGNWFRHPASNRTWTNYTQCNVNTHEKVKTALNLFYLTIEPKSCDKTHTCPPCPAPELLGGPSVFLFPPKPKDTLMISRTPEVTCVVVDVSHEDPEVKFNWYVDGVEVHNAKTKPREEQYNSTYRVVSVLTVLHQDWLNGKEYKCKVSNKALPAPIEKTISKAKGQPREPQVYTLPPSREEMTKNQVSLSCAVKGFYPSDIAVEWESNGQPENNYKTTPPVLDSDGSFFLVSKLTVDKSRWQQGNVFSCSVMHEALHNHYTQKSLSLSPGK

B1: A10-269-385 (VHH)
VHH: EVQLVESGGGLVQAGGSLRVSCQASEISFSFHAMGWYRQAPGKQRELVARITSIGRTTYADFVKGRFTISRGNAKNTVYLQMNSLKPEDTAVYYCNAEPGRVNYEYWGQGTQVTVSS
notes: Llama VHH with C-terminal 6xHis, expressed in 293 cells; also called N220505107
On to B1, for which the EC50 with RC-Fc [1] was determined as 0.052 nM; with RC-Fc [2] it was 0.073 nM; with RC-Fc [3], 0.061 nM; in the experiment with RC-Fc [4] it was 0.062 nM.

B2: A10-268-76 (VHH)
VHH: QVQLVESGGGLVPAGGSLNLSCAASGRTFSTYAMGWFRQAPGKEREFVATINWDNGRTYYADSVKGRFTISRDNAKNMVYLQMNSLKPEDTAVYYCAADKTAIFRTSVVPDDYDYWGQGTQVTVSS
notes: Llama VHH with C-terminal 6xHis, expressed in 293 cells; also called B828604
B2: the “IC50 (nM), inhibition of CGRP-induced (5 nM) cAMP production in SK-N-MC cells” value (“IC50 (nM), inhibition of CGRP-induced” below) in experiment [5] is above 10000 nM. The half-maximal effective concentration (EC50) with RC-Fc [1] amounted to 0.024 nM; with RC-Fc [2] it was 0.144 nM; with RC-Fc [3], 0.028 nM; with RC-Fc [4], 0.065 nM.

B3: PAC1s ECD-Fc (Fc fusion)
chain: MHSDCIFKKEQAMCLEKIQRANELMGFNDSSPGCPGMWDNITCWKPAHVGEMVLVSCPELFRIFNPDQDMGVVSRNCTEDGWSEPFPHYFDACGFDEYESETGDQDYYYLSVKA
notes: C-terminus of PAC1s ECD fused to the N-terminus of Fc; also called PACs1 ECD-Fc; PACls ECD-Fc; not shown: Fc fused to the C-terminus of the ECD
Turning to B3, the “fold binding ability against PAC1 ECD-Fc” value in experiment [6] is 40 times that of PAC1 ECD-Fc.

B4: A10-268-103 (VHH)
VHH: QVQLVESGGGLVQAGGSLRLSCVASGRTFSSYAMGWFRQAPGKEREFVSGITESGATTRYADSMRGRFIISRDNAQNTVYLEMNSLKPEDSAVYYCAASRFGITVPTAKGAYNYWGQGTQVTVSS
notes: Llama VHH with C-terminal 6xHis, expressed in 293 cells; also called B828605
In the case of B4, in experiment [5], the “IC50 (nM), inhibition of CGRP-induced” value is 279 nM. Moreover, the EC50 with RC-Fc [1] is 0.372 nM; with RC-Fc [2] it was 0.114 nM; with RC-Fc [3], 0.265 nM; with RC-Fc [4] it was 0.25 nM.

B5: A10-269-172 (VHH)
VHH: EVQVVESGGGLVQAGGSLRLSCVSSESSFSINTMRWYRQAPGKERELVASINSASSTYYGDAVKGRFTISRVNAKNTVYLQMNSLKPEDTAVYFCNTHSVLASRDYWGQGTQVTVSS
notes: Llama VHH with C-terminal 6xHis, expressed in 293 cells; also called N220505104
Take B5: the EC50 was found to be 0.056 nM in the experiment with RC-Fc [1], 0.051 nM with RC-Fc [2], 0.042 nM with RC-Fc [3] and 0.05 nM with RC-Fc [4].

B6: A10-269-56 (VHH)
VHH: EVQLVESGGGLVQAGGSLRLSCAASGSTFSGRYMGWFRQGQGKEREFVAASMWSGTAISYADSVKGRFTISRDNAKATMYLQMSSLKDEDTAVYYCAAGGLWNLKLSDAGYYEYWGQGTQVTVSS
notes: Llama VHH with C-terminal 6xHis, expressed in 293 cells; also called N220505101
Take B6: the binding result in the experiment with RC-Fc [1] is reported as “no binding”.

B7: A10-269-238 (VHH)
VHH: QVQLVESGGGLVQPGGSLRLSCAASGFTFGNYDMSWVRQAPGKGPEWVSGIAPAGTITRYADSVKGRFTISRDNAKNTLYLQMNSLKPEDTAVYRCAKGASWGQGTQVTVSS
notes: Llama VHH with C-terminal 6xHis, expressed in 293 cells; also called N220505106
As for B7, the concentration giving a half-maximal response (EC50) in the experiment with RC-Fc [1] is 0.091 nM; with RC-Fc [2], 0.073 nM; with RC-Fc [3], 0.081 nM; with RC-Fc [4] it was 0.082 nM.

B8: A10-269-165 (VHH)
VHH: QVQLVESGGGLVQAGGSLRLSCAASRTWFSIGAMGWYRQAPGKQRELVATITSGSSTTYADAVKGRFTVSRDNAENTVYLQMNSLKPEDTAVYYCYTKSRRKPWDLENDYWGQGTQVTVSS
notes: Llama VHH with C-terminal 6xHis, expressed in 293 cells; also called N220505103
As to B8, the EC50 in the experiment with RC-Fc [1] was found to be 0.097 nM; with RC-Fc [2], 0.057 nM; in the experiment with RC-Fc [3] it was 0.48 nM; with RC-Fc [4], 0.211 nM.

B9: A10-268-5 (VHH)
VHH: QVQLVESGGGLVQAGGSLRLSCAVSGRTVTTITMGWFRQAPGKEREFVASISWDGLSTGYQDSVKGRFTISRDNAKNTVYLQMNSLKPEDTAVYYCAAGDSLWSWSKVPANYAYWGQGTQVTVSS
notes: Llama VHH with C-terminal 6xHis, expressed in 293 cells; also called B828601
On to B9, for which, in experiment [5], the “IC50 (nM), inhibition of CGRP-induced” value was above 10000 nM. Moreover, the EC50 was 0.143 nM with RC-Fc [1], 0.184 nM with RC-Fc [2], 0.08 nM in the experiment with RC-Fc [3] and 0.136 nM with RC-Fc [4].

B10: A10-268-18 (VHH)
VHH: QVQLVESGGGQVQAGGSLRLSCAASGRISSSYDMGWLRQAPGKEREFVARITWSGGSTYYADSVKGRFTISRDSTKKTVYLQMNSLKPEDTAVYYCAANRAFTGQYDYWGQGTQVTVSS
Consider B10, for which, in experiment [5], the “IC50 (nM), inhibition of CGRP-induced” value was found to be 492 nM.

B11: A10-268-42 (VHH)
VHH: QVQLVESGGGLVQAGDSLRLSCAASGRTFSGYVMGWFRQAPGKEREFVAALRWSSSNTNYAASVKGRFTISRDYAKDTVYLQMNSLKPDDTAVYYCAAKRDRPYGSTWTPVAADYDTWGQGTQVTVSS
notes: Llama VHH with C-terminal 6xHis, expressed in 293 cells; also called B828603; 42wt
For the molecule B11, the “IC50 (nM), inhibition of CGRP-induced” value in experiment [5] came to 39.7 nM. Moreover, the EC50 with RC-Fc [1] amounted to 0.025 nM; in the experiment with RC-Fc [2], 0.15 nM; in the experiment with RC-Fc [3], 0.021 nM; with RC-Fc [4], 0.065 nM.

B12: A10-268-273 (VHH)
VHH: EVQLVESGGGLVQPGDSLTLSCAASGRAKNRYVMGWFRQAPGKEREFVAALRWSSSNTNYAASVKGRFTISRDYAKDTVYLQMNSLKPDDTAVYYCAAKRDRPYGSTWTPVAADYDTWGQGTQVTVSA
On to B12, for which the “IC50 (nM), inhibition of CGRP-induced” value in experiment [5] was found to be 23.6 nM.
